These are literature values, as cited in paper PMC4964448.

For orientation: Kd means the constant that tells how readily two partners part at equilibrium.

In one data set the target is MMP9 (Homo sapiens) (UniProt P14780).
For another data set, the target named is PSGL-1 (Homo sapiens) (UniProt Q14242).
UniProt Q14242, sequence (Q14242 42-320): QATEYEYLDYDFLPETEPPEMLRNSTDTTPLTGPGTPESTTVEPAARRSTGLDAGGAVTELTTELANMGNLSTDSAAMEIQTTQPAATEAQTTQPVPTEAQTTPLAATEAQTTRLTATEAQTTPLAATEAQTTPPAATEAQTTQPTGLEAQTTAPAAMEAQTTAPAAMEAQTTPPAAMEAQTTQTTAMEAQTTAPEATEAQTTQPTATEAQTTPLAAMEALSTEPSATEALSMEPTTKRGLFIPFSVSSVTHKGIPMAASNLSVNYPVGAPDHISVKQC

UniProt P14780, sequence (P14780 94-707): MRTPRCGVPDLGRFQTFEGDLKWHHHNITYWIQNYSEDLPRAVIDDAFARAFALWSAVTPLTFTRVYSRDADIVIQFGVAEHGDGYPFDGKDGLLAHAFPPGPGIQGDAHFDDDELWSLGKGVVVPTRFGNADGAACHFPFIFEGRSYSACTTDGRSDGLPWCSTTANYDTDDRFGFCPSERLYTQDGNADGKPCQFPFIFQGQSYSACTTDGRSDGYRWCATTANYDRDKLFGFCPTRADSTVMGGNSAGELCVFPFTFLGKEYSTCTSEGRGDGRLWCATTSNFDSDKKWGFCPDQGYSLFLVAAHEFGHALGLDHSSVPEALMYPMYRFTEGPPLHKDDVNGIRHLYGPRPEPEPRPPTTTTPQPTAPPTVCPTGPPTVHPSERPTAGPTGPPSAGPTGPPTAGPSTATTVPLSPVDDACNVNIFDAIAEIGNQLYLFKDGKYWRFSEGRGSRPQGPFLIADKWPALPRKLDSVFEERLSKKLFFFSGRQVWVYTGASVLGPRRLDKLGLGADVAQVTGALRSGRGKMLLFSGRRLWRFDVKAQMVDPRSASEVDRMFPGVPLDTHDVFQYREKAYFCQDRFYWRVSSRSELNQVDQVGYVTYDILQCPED

As for SSL5 (from UniProt Q2G1S6), the values for the equilibrium dissociation constant (Kd) with MMP9 (Homo sapiens) and in the data set with PSGL-1 (Homo sapiens) were 1.9 nM and 820 nM, respectively.
